Data published in EP4624492A1 (Shanghai Hongcheng Biopharmaceutical Co., Ltd., dated 2025).

What was measured:
human CCR8 [1] = molecular target: T1, human CCR8 (human, UniProt P51685 1-355); experiment: flow cytometry, competition with 10 nM AF647-human CCL1 on 293F-hCCR8 cells
T1 construct: whole, on cells; the cell line is named under assay; also called hCCR8

human CCR8 [2] = molecular target: T1, human CCR8; experiment: flow cytometry on 293F-hCCR8 cells
human CCR8 [3] = molecular target: T1, human CCR8; experiment: cell-based or functional assay
human CCR8 [4] = molecular target: T1, human CCR8; experiment: cell-based or functional assay; remark: listed apart in the source

T1 sequence (P51685 whole entry): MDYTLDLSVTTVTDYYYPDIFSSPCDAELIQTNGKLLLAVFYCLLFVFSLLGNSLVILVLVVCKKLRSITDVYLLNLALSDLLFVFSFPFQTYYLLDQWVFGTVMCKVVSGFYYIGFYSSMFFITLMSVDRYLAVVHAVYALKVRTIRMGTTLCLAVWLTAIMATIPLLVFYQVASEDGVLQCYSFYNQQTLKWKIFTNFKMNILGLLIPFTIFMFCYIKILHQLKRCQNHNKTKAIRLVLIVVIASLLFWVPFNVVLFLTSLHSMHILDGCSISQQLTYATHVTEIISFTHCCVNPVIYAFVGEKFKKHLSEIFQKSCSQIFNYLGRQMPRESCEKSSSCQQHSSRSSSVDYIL

IC50 (human CCR8 [1]) [µg/mL]	EC50 (human CCR8 [2]) [µg/mL]	IC50 of blockade of CCL1-induced β-arrestin recruitment (human CCR8 [3]) [µg/mL]	EC50 of activation of Jurkat-human FcγRIIIa(158V)-NFAT with 293F-hCCR8 target cells (human CCR8 [4]) [µg/mL]	Binder
0.291	0.237			27B9-1G3_hzH1L2_hIgG1 (antibody, V domains shown, Humanized, hIgG1/K; hzVH01 + hzVL02) VH: QVQLVQSGAEVKKPGSSVKVSCKASGGTFSGYNMNWVRQAPGQGLEWMGNIDPYYGGTNYNQKFKGRVTITADKSTSTAYMELSSLRSEDTAVYYCARETWFITTGVIKKGFYFDYWGQGTTVTVSS VL: EIVLTQSPATLSLSPGERATLACSASSIISSNYLHWYQQKPGQAPRLLIYRTSSLASGIPARFSGSGSGTDYTLTISSLEPEDFAVYYCQQGSSIPRTFGGGTKVEIKR
0.167	0.22			27B9-1G3_hzH4L3_hIgG1 (antibody, V domains shown, Humanized, hIgG1/K; hzVH04 + hzVL03) VH: QVQLVQSGAEVKKPGSSVKVSCKASGYSFTGYNMNWVRQAPGQGLEWMGNIDPYYGGTNYNQKFKGKATITADKSTSTAYMELSSLRSEDTAVYYCARETWFITTGVIKKGFYFDYWGQGTTVTVSS VL: EIVLTQSPATLSLSPGERATLACSASSIISSNYLHWYQQKPGQSPRLLIYRTSSLASGVPARFSGSGSGTSYTLTISSLEPEDFAVYYCQQGSSIPRTFGGGTKVEIKR
0.189	0.198			27B9-1G3_hzH3L3_hIgG1 (antibody, V domains shown, Humanized, hIgG1/K; hzVH03 + hzVL03) VH: QVQLVQSGAEVKKPGSSVKVSCKASGGTFSGYNMNWVRQAPGQGLEWMGNIDPYYGGTNYNQKFKGKATITADKSTSTAYMELSSLRSEDTAVYYCARETWFITTGVIKKGFYFDYWGQGTTVTVSS VL: EIVLTQSPATLSLSPGERATLACSASSIISSNYLHWYQQKPGQSPRLLIYRTSSLASGVPARFSGSGSGTSYTLTISSLEPEDFAVYYCQQGSSIPRTFGGGTKVEIKR
0.299	0.19			27B9-1G3_hzH2L2_hIgG1 (antibody, V domains shown, Humanized, hIgG1/K; hzVH02 + hzVL02) VH: QVQLVQSGAEVKKPGSSVKVSCKASGYSFTGYNMNWVRQAPGQGLEWMGNIDPYYGGTNYNQKFKGRVTITADKSTSTAYMELSSLRSEDTAVYYCARETWFITTGVIKKGFYFDYWGQGTTVTVSS VL: EIVLTQSPATLSLSPGERATLACSASSIISSNYLHWYQQKPGQAPRLLIYRTSSLASGIPARFSGSGSGTDYTLTISSLEPEDFAVYYCQQGSSIPRTFGGGTKVEIKR
0.121	0.175			27B9-1G3_hzH3L1_hIgG1 (antibody, V domains shown, Humanized, hIgG1/K; hzVH03 + hzVL01) VH: QVQLVQSGAEVKKPGSSVKVSCKASGGTFSGYNMNWVRQAPGQGLEWMGNIDPYYGGTNYNQKFKGKATITADKSTSTAYMELSSLRSEDTAVYYCARETWFITTGVIKKGFYFDYWGQGTTVTVSS VL: EIVLTQSPATLSLSPGERATLSCSASSIISSNYLHWYQQKPGQAPRLLIYRTSSLASGIPARFSGSGSGTDFTLTISSLEPEDFAVYYCQQGSSIPRTFGGGTKVEIKR
0.15	0.2			27B9-1G3_hzH3L2_hIgG1 (antibody, V domains shown, Humanized, hIgG1/K; hzVH03 + hzVL02) VH: QVQLVQSGAEVKKPGSSVKVSCKASGGTFSGYNMNWVRQAPGQGLEWMGNIDPYYGGTNYNQKFKGKATITADKSTSTAYMELSSLRSEDTAVYYCARETWFITTGVIKKGFYFDYWGQGTTVTVSS VL: EIVLTQSPATLSLSPGERATLACSASSIISSNYLHWYQQKPGQAPRLLIYRTSSLASGIPARFSGSGSGTDYTLTISSLEPEDFAVYYCQQGSSIPRTFGGGTKVEIKR
0.192	0.212			27B9-1G3_hzH2L3_hIgG1 (antibody, V domains shown, Humanized, hIgG1/K; hzVH02 + hzVL03) VH: QVQLVQSGAEVKKPGSSVKVSCKASGYSFTGYNMNWVRQAPGQGLEWMGNIDPYYGGTNYNQKFKGRVTITADKSTSTAYMELSSLRSEDTAVYYCARETWFITTGVIKKGFYFDYWGQGTTVTVSS VL: EIVLTQSPATLSLSPGERATLACSASSIISSNYLHWYQQKPGQSPRLLIYRTSSLASGVPARFSGSGSGTSYTLTISSLEPEDFAVYYCQQGSSIPRTFGGGTKVEIKR
0.228	0.175			27B9-1G3_hzH1L3_hIgG1 (antibody, V domains shown, Humanized, hIgG1/K; hzVH01 + hzVL03) VH: QVQLVQSGAEVKKPGSSVKVSCKASGGTFSGYNMNWVRQAPGQGLEWMGNIDPYYGGTNYNQKFKGRVTITADKSTSTAYMELSSLRSEDTAVYYCARETWFITTGVIKKGFYFDYWGQGTTVTVSS VL: EIVLTQSPATLSLSPGERATLACSASSIISSNYLHWYQQKPGQSPRLLIYRTSSLASGVPARFSGSGSGTSYTLTISSLEPEDFAVYYCQQGSSIPRTFGGGTKVEIKR
0.162	0.196			27B9-1G3_hzH4L2_hIgG1 (antibody, V domains shown, Humanized, hIgG1/K; hzVH04 + hzVL02) VH: QVQLVQSGAEVKKPGSSVKVSCKASGYSFTGYNMNWVRQAPGQGLEWMGNIDPYYGGTNYNQKFKGKATITADKSTSTAYMELSSLRSEDTAVYYCARETWFITTGVIKKGFYFDYWGQGTTVTVSS VL: EIVLTQSPATLSLSPGERATLACSASSIISSNYLHWYQQKPGQAPRLLIYRTSSLASGIPARFSGSGSGTDYTLTISSLEPEDFAVYYCQQGSSIPRTFGGGTKVEIKR
0.269	0.246			27B9-1G3_hzH2L1_hIgG1 (antibody, V domains shown, Humanized, hIgG1/K; hzVH02 + hzVL01) VH: QVQLVQSGAEVKKPGSSVKVSCKASGYSFTGYNMNWVRQAPGQGLEWMGNIDPYYGGTNYNQKFKGRVTITADKSTSTAYMELSSLRSEDTAVYYCARETWFITTGVIKKGFYFDYWGQGTTVTVSS VL: EIVLTQSPATLSLSPGERATLSCSASSIISSNYLHWYQQKPGQAPRLLIYRTSSLASGIPARFSGSGSGTDFTLTISSLEPEDFAVYYCQQGSSIPRTFGGGTKVEIKR
0.163	0.178			27B9-1G3_hzH4L1_hIgG1 (antibody, V domains shown, Humanized, hIgG1/K; hzVH04 + hzVL01) VH: QVQLVQSGAEVKKPGSSVKVSCKASGYSFTGYNMNWVRQAPGQGLEWMGNIDPYYGGTNYNQKFKGKATITADKSTSTAYMELSSLRSEDTAVYYCARETWFITTGVIKKGFYFDYWGQGTTVTVSS VL: EIVLTQSPATLSLSPGERATLSCSASSIISSNYLHWYQQKPGQAPRLLIYRTSSLASGIPARFSGSGSGTDFTLTISSLEPEDFAVYYCQQGSSIPRTFGGGTKVEIKR
0.31	0.188			27B9-1G3_hzH1L1_hIgG1 (antibody, V domains shown, Humanized, hIgG1/K; hzVH01 + hzVL01) VH: QVQLVQSGAEVKKPGSSVKVSCKASGGTFSGYNMNWVRQAPGQGLEWMGNIDPYYGGTNYNQKFKGRVTITADKSTSTAYMELSSLRSEDTAVYYCARETWFITTGVIKKGFYFDYWGQGTTVTVSS VL: EIVLTQSPATLSLSPGERATLSCSASSIISSNYLHWYQQKPGQAPRLLIYRTSSLASGIPARFSGSGSGTDFTLTISSLEPEDFAVYYCQQGSSIPRTFGGGTKVEIKR
0.0761	0.133	1.16	0.0357	563E10E12_hzH3L0_hIgG1 (antibody, Humanized, hIgG1/K) heavy: not shown light: DIVMTQSPLSLPVTPGEPASISCRSSKSLLHSNGITYLFWYLQKPGQSPQLLIYQMSNLASGVPDRFSGSGSGTDFTLKISRVEAEDVGVYYCAQSLELPLTFGGGTKVEIKRTVAAPSVFIFPPSDEQLKSGTASVVCLLNNFYPREAKVQWKVDNALQSGNSQESVTEQDSKDSTYSLSSTLTLSKADYEKHKVYACEVTHQGLSSPVTKSFNRGEC
0.0689	0.103	1.46	0.0281	563E10E12_hzH2L0_hIgG1 (antibody, Humanized, hIgG1/K) heavy: not shown light: DIVMTQSPLSLPVTPGEPASISCRSSKSLLHSNGITYLFWYLQKPGQSPQLLIYQMSNLASGVPDRFSGSGSGTDFTLKISRVEAEDVGVYYCAQSLELPLTFGGGTKVEIKRTVAAPSVFIFPPSDEQLKSGTASVVCLLNNFYPREAKVQWKVDNALQSGNSQESVTEQDSKDSTYSLSSTLTLSKADYEKHKVYACEVTHQGLSSPVTKSFNRGEC
0.0958	0.107	3.51	0.0286	563E10E12_hzH0L0_hIgG1 (antibody, Humanized, hIgG1/K) heavy: not shown light: DIVMTQSPLSLPVTPGEPASISCRSSKSLLHSNGITYLFWYLQKPGQSPQLLIYQMSNLASGVPDRFSGSGSGTDFTLKISRVEAEDVGVYYCAQSLELPLTFGGGTKVEIKRTVAAPSVFIFPPSDEQLKSGTASVVCLLNNFYPREAKVQWKVDNALQSGNSQESVTEQDSKDSTYSLSSTLTLSKADYEKHKVYACEVTHQGLSSPVTKSFNRGEC
0.0862	0.118	3.65	0.0299	563E10E12_hzH0L1_hIgG1 (antibody) heavy: not shown light: DVVMTQSPLSLPVTPGEPASISCRSSKSLLHSNGITYLFWYLQKPGQSPQLLIYQMSNLASGVPDRFSGSGSGTDFTLKISRVEAEDVGVYYCAQSLELPLTFGGGTKVEIKRTVAAPSVFIFPPSDEQLKSGTASVVCLLNNFYPREAKVQWKVDNALQSGNSQESVTEQDSKDSTYSLSSTLTLSKADYEKHKVYACEVTHQGLSSPVTKSFNRGEC
0.0543	0.0569	1.84		563E10E12_hzH6L0_hIgG1 (antibody, Humanized, hIgG1/K) heavy: not shown light: DIVMTQSPLSLPVTPGEPASISCRSSKSLLHSNGITYLFWYLQKPGQSPQLLIYQMSNLASGVPDRFSGSGSGTDFTLKISRVEAEDVGVYYCAQSLELPLTFGGGTKVEIKRTVAAPSVFIFPPSDEQLKSGTASVVCLLNNFYPREAKVQWKVDNALQSGNSQESVTEQDSKDSTYSLSSTLTLSKADYEKHKVYACEVTHQGLSSPVTKSFNRGEC
0.064	0.136	1.52	0.0305	563E10E12_hzH2L1_hIgG1 (antibody, Humanized, hIgG1/K) heavy: not shown light: DVVMTQSPLSLPVTPGEPASISCRSSKSLLHSNGITYLFWYLQKPGQSPQLLIYQMSNLASGVPDRFSGSGSGTDFTLKISRVEAEDVGVYYCAQSLELPLTFGGGTKVEIKRTVAAPSVFIFPPSDEQLKSGTASVVCLLNNFYPREAKVQWKVDNALQSGNSQESVTEQDSKDSTYSLSSTLTLSKADYEKHKVYACEVTHQGLSSPVTKSFNRGEC
0.0579	0.0593	1.65		563E10E12_hzH6L1_hIgG1 (antibody, Humanized, hIgG1/K) heavy: not shown light: DVVMTQSPLSLPVTPGEPASISCRSSKSLLHSNGITYLFWYLQKPGQSPQLLIYQMSNLASGVPDRFSGSGSGTDFTLKISRVEAEDVGVYYCAQSLELPLTFGGGTKVEIKRTVAAPSVFIFPPSDEQLKSGTASVVCLLNNFYPREAKVQWKVDNALQSGNSQESVTEQDSKDSTYSLSSTLTLSKADYEKHKVYACEVTHQGLSSPVTKSFNRGEC
